Target: T1, FLAG-Eya3 (human), wild type, Q99504
T1 chain: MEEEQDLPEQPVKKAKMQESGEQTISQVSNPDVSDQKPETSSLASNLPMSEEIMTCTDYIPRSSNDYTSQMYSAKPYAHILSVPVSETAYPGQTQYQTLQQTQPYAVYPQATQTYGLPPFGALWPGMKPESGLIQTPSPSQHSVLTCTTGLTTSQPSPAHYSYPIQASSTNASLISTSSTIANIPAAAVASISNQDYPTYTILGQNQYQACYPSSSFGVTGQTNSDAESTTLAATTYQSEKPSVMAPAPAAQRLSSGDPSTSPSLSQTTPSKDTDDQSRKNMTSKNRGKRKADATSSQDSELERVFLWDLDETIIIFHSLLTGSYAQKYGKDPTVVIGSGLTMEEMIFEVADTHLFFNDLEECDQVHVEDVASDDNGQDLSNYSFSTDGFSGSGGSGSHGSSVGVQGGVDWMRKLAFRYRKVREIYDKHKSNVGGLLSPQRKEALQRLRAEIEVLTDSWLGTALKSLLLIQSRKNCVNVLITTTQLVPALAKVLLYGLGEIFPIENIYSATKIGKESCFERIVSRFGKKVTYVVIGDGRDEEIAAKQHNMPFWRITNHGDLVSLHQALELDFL
Assay: FLAG co-IP followed by Western blot, band quantification
Details: chain shown with the change; cotransfected HEK cells; three biological replicates; parent: est. 1.0; read off a plot

B1: HA-tagged B55α (HA-B55α), wild type, P63151 F84-L90/GG (protein)
chain: MAGAGGGNDIQWCFSQVKGAVDDDVAEADIISTVEFNHSGELLATGDKGGRVVIFQQEQENKIQSHSRGEYNVYSTFQSHEPEGGEIEEKINKIRWLPQKNAAQFLLSTNDKTIKLWKISERDKRPEGYNLKEEDGRYRDPTTVTTLRVPVFRPMDLMVEASPRRIFANAHTYHINSISINSDYETYLSADDLRINLWHLEITDRSFNIVDIKPANMEELTEVITAAEFHPNSCNTFVYSSSKGTIRLCDMRASALCDRHSKLFEEPEDPSNRSFFSEIISSISDVKFSHSGRYMMTRDYLSVKIWDLNMENRPVETYQVHEYLRSKLCSLYENDCIFDKFECCWNGSDSVVMTGSYNNFFRMFDRNTKRDITLEASRENNKPRTVLKPRKVCASGKRKKDEISVDSLDFNKKILHTAWHPKENIIAVATTNNLYIFQDKVN
A ratio to parent of 0.58 was found for B1 in this work.

Reference: paper PMC11328874 (2024)
